This note sets out measurements from the DeepSol protein solubility set.

The nature of the data set: soluble on expression in E. coli; label from the status in PepcDB or PDB records.
Turning to “MQDYMQHLPHMQEIKSEILNKVLTQVQSYDESQFSAKDVKNALNQTHLSIEHLKALLSSAAEDFIEELAFKSAKVKQKYFGNSISLFTPLYLSNYCNSKCVYCGFQKGNKIARAKLNEAEIHEEMQAIAKSGLEEILMLTGEGREFASVEYIANACKIAREYFKVVGVEIYPMNEDEYKILHEKGCDYVTVFQETYNPLKYSKIHLAGEKRIFPYRFNAQERALKAGMRGVAFAALLGIDDFRKDALATALHAHFLQQAYSHAEISISVPRLRPIINNAKIHPKDVSEKRLLQVLCAYRLFLPFAGITISSRERIGFRDEVIKLGATKMSAGVSVGIGEHKGEKKGDEQFEISDDRSVDEILAMLKRSNLQAVMSDSIYVG”, the “soluble on expression in E. coli” value is recorded as “not soluble”.

For the sequence “MQELINEYRGALQEVNEVKANLQTKIDAKKRPPQAAGQKRTIQEVPEKAIMSKLNSIIRSLEYSIEWMELGHEPAPRRAIHRRSGLQREVCVTDIETMRQWFVYEHGIAYDFEDNEPKISEWDKIRMEDAMSTMSTQEKKVFLLKHEKNLSYSQISDEMEISVRSVRSYLHRGEEKIQNQIDGSLFCMAI”, the “soluble on expression in E. coli” value is “not soluble”.

As to “MQETRLMENEYSVNLPTKFWYRGKTYNGFINLVNIFRATMILGTPGSGKSYAIVNQFIKQTIEKSYALYIYDFKFDDLSVIAYNHLLKYRYRYKVPPKFYVINFDNPRKSHRCNPLAPELMTDISDAYESSYTIMLNLNKSWVQKQGDFFVESPIVLFTAIIWFLKIYEGGKFCTFPHAIELLNKRYEDVFTILTSYPDLENYLSPFIDAWKGGASEQLQGQIASAKIPLSRLISPQLYWVMSGSDFTLDINNPKEPKVLCVGNNPDRISIYGAALGLYNSRIVKLINKKKQLKSCVIIDELPTIFFKGLDNLIATARSNKVAVVLGFQDFSQLKRDYGDKEAAVIMSTVGNVFSGQVVGETAKTLSERFGKILQKRESMSINRNDTSTSINTQLDSLIPASKISTLSQGMFVGAVADNFGETIEQKIFHAQIVVDNEAVQKETAAYQPIPEISSFLDENGNDTMEQQIQANYRQIKQDIVELVENELIRIENDPELKYLLNNEM”, the “soluble on expression in E. coli” value is “not soluble”.

Turning to “MQFGRHISGQFNVELESIRSQVLTMGGLVEQQLTLAMQALHEDDEKLARRVIADDHKVNAMEVSIDEACTRIIAKRQPTAKDLRLIMAIIKTITDLERIGDSATKMAYIAIERPPAKQHQFQVSLEPLCRQAIAMLHQVLDAFARMDVEAAAEIYKQDDRLDKEYEAVVRQLMTYMMEDPKNIPHILQVIWSARAIERVGDRCQNICEYIIYFVKGKDVRHLGDQGIDDVLKKPSL”, the “soluble on expression in E. coli” value is “not soluble”.

“MQFLQNIPPYLFFTGKGGVGKTSISCATAIRLAEQGKRVLLVSTDPASNVGQVFSQTIGNTIQAIASVPGLSALEIDPQAAAQQYRARIVDPIKGVLPDDVVSSINEQLSGACTTEIAAFDEFTGLLTDASLLTRFDHIIFDTAPTGHTIRLLQLPGAWSSFIDSNPEGASCLGPMAGLEKQREQYAYAVEALSDPKRTRLVLVARLQKSTLQEVARTHLELAAIGLKNQYLVINGVLPKTEAANDTLAAAIWEREQEALANLPADLAGLPTDTLFLQPVNMVGVSALSRLLSTQPVASPSSDEYLQQRPDIPSLSALVDDIARNEHGLIMLMGKGGVGKTTMAAAIAVRLADMGFDVHLTTSDPAAHLSMTLNGSLNNLQVSRIDPHEETERYRQHVLETKGKELDEAGKRLLEEDLRSPCTEEIAVFQAFSRVIREAGKRFVVMDTAPTGHTLLLLDATGAYHREIAKKMGEKGHFTTPMMLLQDPERTKVLLVTLPETTPVLEAANLQADLERAGIHPWGWIINNSLSIADTRSPLLRMRAQQELPQIESVKRQHASRVALVPVLASEPTGIDKLKQLAGHHHHHH”: the “soluble on expression in E. coli” value is on record as “soluble”.

As for “MQHFSRSVALLALSAGTLTSLPALAADELHYNQISLRAEVSQEVARDLMIVTLYSESQNTDPAKLAAEITTTMNKALDQARQVKDVTLRQGSRNSYPIYDGKGQKITGWRERAELRLESSDFAALSKLTGELLGDLKMGGMDFAIADPTRKASEDALLKDAVKAFKARAQLATEALGGKGYKIVNLNLNSNGYPQPYMRAPMMMKAASMDSAPVTPEVEAGTSQVSMTADGAIEVLMPLEHHHHHH”, the “soluble on expression in E. coli” value is “soluble”.

Turning to “MQHKLIAFIGGGNMAQAIILGLLKQGYPAEQIIVNDPNEEKRAFFANLDVATSENNVGSAIKAEVVLLAVKPQMMAEVCSPLSAVDFSDKLLISIAAGISTERLNALIPSVKSIVRVMPNTPALVGEGMAGLFAPKNTSENYRTFAQDLLGAVGRTVWVNDETQMHAVTAASGSSPAYFFLMLEAMQKALIKMNIDEKTARELVQQSMLGAAKMVTENPQIALSTLRENVTSKGGTTAAALAVFDAQHFNQTIEQAMQACLSRSQEMETLF”, the “soluble on expression in E. coli” value is on record as “soluble”.

With “MQIGANSLLQEMQSLKGEVTPSFGISPNNIVQQVNNTSGADFGQLLSQAIGNVSGLQSTSSNLATRLDMGDTTVSLSDSVIAREKASVAFEATIQVRNKLVEAYKEIMSMPV”, the “soluble on expression in E. coli” value is given as “not soluble”.

Regarding “MQKLILSALFVALVAADCNMRCPDGYMSFKRTPTPKNSMTGMAILSDTLISPNQAKKVCEKDGSILTSFENFDERTKLSTVLRDFLTAKKLDRGSMIVDGHRLKNCETTDKTVLATVECRNSSSGFTTDEKHTDNTFMWKSWSATEPGQTIFEKSIESCLQLSISQFPARSELINDVFCNYVKHPENEGASDLWNYGAVCGRFPEWI”, the “soluble on expression in E. coli” value is “not soluble”.

As to “MQLEDYTAATNIAKKDFMPGTTKIDRALTGQVAGLQVKRSSGMPGEGSYYNLRGIRTLTGDNAPLIVINGVPHMPDKTPSALIDGFTRDIFQFYHLQDIQNITILKGAEAAMYGSMGSNGVILIETDGTASN”, the “soluble on expression in E. coli” value is “not soluble”.

For “MQLLITGGTGLIGRHLIQRLQLLSHHITVLTRDPERARGVLGNQVEYWSTLSNITSLNDFDGVINLAGEPIADKRWTPQQKQRLAQSRWSITEQLATLIKASSEPPTVFISGSAVGYYGDQGEALVTEGESPVDEFTHHLCTRWEALAQSAESDKTRVCLLRTGIVLSAQGGALAKMLPIFRLGLGGPMGSGKQYMPWIHIDDMVNGIIYLLDQPILRGPFNMVAPYPVHNEQFSAMLAHVLDRPGFLRAPAFAMKLLMGEASTLVLGGQRAIPQRLEAAGFGFRFFELEEALQDVTKKPGLEHHHHHH”, the “soluble on expression in E. coli” value is “soluble”.

With “MQLRKMQTIKKEPAPLDPTSSSDKMLLLNSALAEVAEDLASGEDLLLNEGSMGKNKSSACRRKREFIPDEKKDAMYWEKRRKNNEAAKRSREKRRLNDLVLENKLIALGEENATLKAELLSLKLKFGLISSTAYAQEIQKLSNSTAVYFQDYQTSKAAVSSFVDEHEPAMVAGSCISVIKHSPQSSLSDVSEVSSVEHTQESPAQGGCRSPENKFPVIKQEPVELESFAREAREERGTYSTSIYQSYMGSSFSTYSHSPPLLQVHGSTSNSPRTSEADEGVVGKSSDGEDEQQVPKGPIHSPVELQRVHATVVKVPEVNPSALPHKLRIKAKAMQVKVEALDSEFEGMQKLSSPADAIAKRHFDLEKHGTSGMAHSSLPPFSVQVTNIQDWSLKSEHWHHKELSSKTQSSFKTGVVEVKDGGYKVSEAENLYLKQGIANLSAEVVSLKRFIATQPISASDSR”, the “soluble on expression in E. coli” value is on record as “not soluble”.

For “MQLRKMQTVKKEQASLDASSNVDKMMVLNSALTEVSEDSTTGEELLLSEGSVGKNKSSACRRKREFIPDEKKDAMYWEKRRKNNEAAKRSREKRRLNDLVLENKLIALGEENATLKAELLSLKLKFGLISSTAYAQEIQKLSNSTAVYFQDYQTSKSNVSSFVDEHEPSMVSSSCISVIKHSPQSSLSDVSEVSSVEHTQESSVQGSCRSPENKFQIIKQEPMELESYTREPRDDRGSYTASIYQNYMGNSFSGYSHSPPLLQVNRSSSNSPRTSETDDGVVGKSSDGEDEQQVPKGPIHSPVELKHVHATVVKVPEVNSSALPHKLRIKAKAMQIKVEAFDNEFEATQKLSSPIDMTSKRHFELEKHSAPSMVHSSLTPFSVQVTNIQDWSLKSEHWHQKELSGKTQNSFKTGVVEMKDSGYKVSDPENLYLKQGIANLSAEVVSLKRLIATQPISASDSG”, the “soluble on expression in E. coli” value was “soluble”.

As for “MQLRSVIAADHPALFALWSRTPGIRLRAEDAYPFFLAYLQRNPGLSLLVETEGEVIACLMAGHDGRRGYLQHLVVDPGYRGLGLARRMLDEVLARLAREGIGKSHVFVLDAAEEAQAFWRAQSDWERRKDIQVFSTREGHA”, the “soluble on expression in E. coli” value was “soluble”.
